The text below walks through data of PMC9378563.

In assay [1] the target is L21A variant of HIV-1 gp41 Core (Core^L21A) (HIV-1 (HXB2 numbering named)). Put plainly: NMR, 1H-15N HSQC resonance amplitudes of trimer and monomer.
For assay [2] the target is unchanged. The assay is described as follows: SEC-MALS. (In general: SEC sorts molecules by how far they enter the pores of the column.)
Assay [3] shares this target. The assay is described as follows: NMR, 15N ZZ exchange.

The term stoichiometry N denotes a count of units in the complex or per binding partner. In the case of “L21A variant of HIV-1 gp41 Core (Core^L21A) (domain or fragment)”, in assay [1], the Kd = [M]^3/([T][B]^2) (6HB trimer + 2 bicelles to 3 lipid-bound monomers) amounted to 2.8 and the population of the lipid-bound (monomeric) state came to 71%. Further, the stoichiometry N in assay [2] turned out to be 3. Besides, in assay [3], the kex (koff[B]^2 + 3kon[M]^2) was 1.05 s⁻¹.
